Article PMC8939775, “Structures of the Omicron Spike trimer with ACE2 and an anti-Omicron antibody” (Science (New York, N.y.), 2022)

Target: T1, SARS-CoV-2 wildtype (WT) spike extracellular domain trimer (proline substitutions 2P or 6P, mutated furin … (SARS-CoV-2, UniProt P0DTC2))
T1 construct: also called WT spike trimer
Details: both partners purified

| Binder | Kd [nM] |
| --- | --- |
| JMB2002 IgG (antibody, V domains shown, copies: 2 + 2) VH: QVQLVQSGAEVKKPGSSVKVSCKASGGTFSSYAISWVRQAPGQGLEWMGRIIPIFGTANYAQKFQGRVTITADESTSTAYMELSSLRSEDTAVYYCASLASYSSGWEDVFDIWGQGTMVTVSS VL: DIQMTQSPSSLSASVGDRVTITCRASQGISSWLAWYQQKPGKAPKLLIYDASNLETGVPSRFSGSGSGTDFTFTISSLQPEDIATYYCQQYDNLPLTFGGGTKVEIK | 0.5 ± 0.3 |
| JMB2002 Fab (Fab, V domains shown, also called Fab from JMB2002) VH: QVQLVQSGAEVKKPGSSVKVSCKASGGTFSSYAISWVRQAPGQGLEWMGRIIPIFGTANYAQKFQGRVTITADESTSTAYMELSSLRSEDTAVYYCASLASYSSGWEDVFDIWGQGTMVTVSS VL: DIQMTQSPSSLSASVGDRVTITCRASQGISSWLAWYQQKPGKAPKLLIYDASNLETGVPSRFSGSGSGTDFTFTISSLQPEDIATYYCQQYDNLPLTFGGGTKVEIK | 12.2 ± 11.6 |
